Substitutions are numbered along the chain they refer to. In names and notes the source's numbering stands.
Columns and labels:
DAOCS [1] = assay: Specific activity of DAOCS mutants by turnover of α-[14C]-ketoglutarate with penicillin substrates; assay type: biochemical
Protocol: (§1) Almost all the mutants expressed well, except R88I, R88Q and R87Q/R287Q whereby the expression level was only about half of others. Generally the expression level of colonies was about 10˜20% of soluble protein at 27° C. Moreover, recombinant enzyme of P168V mutant was insoluble. These mutant enzymes were purified to ˜60-70% purity with Resouce-Q column (Phamacia). The activity of each mutant with respect to penicillin N and its side-chain analogues was analysed by bioassay. […] Screening of the substrate conversion of penicillins mutants was also performed using a assay with radiolabelled α-ketoglutarate. The reaction conditions were the same as for bioassay except that [^14C]-α-ketoglutarate was used.

E. coli X580 cells = assay: Hole-plate bioassay containing penicillinase, on enzyme reaction products; assay type: cell-based; conditions: products of the reaction with penicillin G; hole-plate assay with penicillinase
Protocol: as §1

DAOCS [2] = target: DAOCS (Streptomyces clavuligerus, UniProt P18548); conditions: compared with conversion of penicillin N to DAOC; cited from earlier work
[3] = Expression of recombinant DAOCS mutants, solubility of the enzyme; conditions: expressed at 27° C.
Excerpt: A U.S.E mutagenesis kit (Phamacia) was used for all the mutagenesis reactions and a Pst I restriction site on the pET vector was selected. Selection of single and double mutants were successfully performed from colonies by restriction enzyme digestion. (Sambrook et al, Molecular Cloning, A Laboratory Manual, Cold Spring Harbour, USA, 1989). […] Mutations of DAOCS (Table 1) were confirmed by sequencing according to the dideoxy method of Sanger. Mutants were designed after study of the IPNS-Mn^2+ and the IPNS-Fe(II)-ACV structures. Polar residues with which the side chain D-α-aminoadipoyl (carboxylate and amino groups) might bind to were identified.
as §1

B1: Wild type: unmodified deacetoxycephalosporin C synthase (DAOCS, expandase) (protein, UniProt P18548 1-311, looked up)
Deacetoxycephalosporin C …: MDTTVPTFSLAELQQGLHQDEFRRCLRDKGLFYLTDCGLTDTELKSAKDLVIDFFEHGSEAEKRAVTSPVPTMRRGFTGLESESTAQITNTGSYSDYSMCYSMGTADNLFPSGDFERIWTQYFDRQYTASRAVAREVLRATGTEPDGGVEAFLDCEPLLRFRYFPQVPEHRSAEEQPLRMAPHYDLSMVTLIQQTPCANGFVSLQAEVGGAFTDLPYRPDAVLVFCGAIATLVTGGQVKAPRHHVAAPRRDQIAGSSRTSSVFFLRPNADFTFSVPLARECGFDVSLDGETATFQDWIGGNYVNIRRTSKA
Q: For B1, which Specific activity (DAOCS [1]; substrate 6-Aminopenicillanic acid (6-APA)) is on record?
A: Its Specific activity is 1.0 ± 0.2 nmol/min/mg.

Q: What about the Specific activity (DAOCS [1]; substrate Adipyl-6-APA) of the same molecule?
A: Its Specific activity is 2.7 nmol/min/mg.

Q: And the Specific activity (DAOCS [1]; substrate Ammoxicillin)?
A: Its Specific activity is 1.4 ± 0.6 nmol/min/mg.

Q: And the Specific activity (DAOCS [1]; substrate Ampicillin)?
A: Its Specific activity is 0 nmol/min/mg.

Q: And the Specific activity (DAOCS [1]; substrate Carbenicillin)?
A: The Specific activity was 0 nmol/min/mg.

Q: And the Specific activity (DAOCS [1]; substrate Cloxacillin)?
A: Its Specific activity is 1.6 ± 0.6 nmol/min/mg.

Q: And the Specific activity (DAOCS [1]; substrate Methicillin)?
A: Its Specific activity is 0 nmol/min/mg.

Q: What about the Specific activity (DAOCS [1]; substrate Penicillin G) of the same molecule?
A: Its Specific activity is 5.1 ± 0.4 nmol/min/mg.

Q: And the Specific activity (DAOCS [1]; substrate Penicillin N, uncoupled decarboxylation subtracted)?
A: Its Specific activity is 6.4 nmol/min/mg.

Q: What about the Specific activity (DAOCS [1]; substrate Penicillin V) of the same molecule?
A: The Specific activity was 5.3 ± 0.3 nmol/min/mg.

Q: What about the “Oxacillin accepted as substrate (in words)” value (DAOCS [1]; substrate oxacillin) of the same molecule?
A: The value was “neither oxacillin nor piperacillin are substrates”.

Q: What about the Specific activity (DAOCS [1]; substrate oxacillin) of the same molecule?
A: Its Specific activity is 0 nmol/min/mg.

Q: And the “Piperacillin accepted as substrate (in words)” value (DAOCS [1]; substrate piperacillin)?
A: The value was “neither oxacillin nor piperacillin are substrates”.

Q: What about the Specific activity (DAOCS [1]; substrate piperacillin) of the same molecule?
A: The Specific activity was 0 nmol/min/mg.

Q: And the “Inhibition of growth of E. coli X580 cells” value (E. coli X580 cells)?
A: The value was “showed the same inhibition”.

Q: What about the “Efficiency of conversion of penicillin G to phenylacetylcephalosporin C” value (DAOCS [2]) of the same molecule?
A: Its value is “much less efficient”.

B2: P168V: DAOCS mutant whose recombinant enzyme was insoluble (protein, UniProt P18548 1-311, looked up, variant P168V)
Deacetoxycephalosporin C …: B1 Deacetoxycephalosporin C … with P168V
Q: Which “Solubility of recombinant enzyme” value [3] does the source give for B2 here?
A: Its value is “insoluble”.

— patent publication US20030088058A1, “ISOPENICILLIN N SYNTHETASE AND DEACETOXYCEPHALOSPORIN C SYNTHETASE ENZYMES AND METHODS” (priority 1996, published 2003)
